# Source: patent publication US20220362357A1, “Synergistic Combinations of Amino Acid Depletion Agent Sensitizers (AADAS) and Amino Acid Depletion Agents (AADA), and Therapeutic Methods of Use Thereof” (STICHTING RADBOUD UNIVERSITAIR MEDISCH CENTRUM, priority 2018, published 2022)
# B1: ASNase: native E. coli ASNase (NCBI WP_000394140.1), used in the in vitro studies (protein, UniProt P00805 23-348, looked up)
# L-asparaginase 2: LPNITILATGGTIAGGGDSATKSNYTVGKVGVENLVNAVPQLKDIANVKGEQVVNIGSQDMNDNVWLTLAKKINTDCDKTDGFVITHGTDTMEETAYFLDLTVKCDKPVVMVGAMRPSTSMSADGPFNLYNAVVTAADKASANRGVLVVMNDTVLDGRDVTKTNTTDVATFKSVNYGPLGYIHNGKIDYQRTPARKHTSDTPFDVSKLNELPKVGIVYNYANASDLPAKALVDAGYDGIVSAGVGNGNLYKSVFDTLATAAKTGTAVVRSSRVPTGATTQDAEVDDAKYGFVASGTLNPQKARVLLQLALTQTKDPQQIQQIFNQY
# Tests used:
# Experiment in all cases: PDX ALL cells co-cultured on hTERT MSCs, ASNase x ibrutinib dilution matrix, microscopy
# Format in all cases: cell-based, human
# PDX m1600 = details: m1600 (3 d), ibrutinib B0=0 to B9=100
# Procedure: (§1) After 2-4 months these mice developed full blown leukemia with an immunophenotype and genetic composition that in the large majority of cases is identical to the original material at the time of injection.
# (§2) Briefly, hTERT immortalized MSCs were seeded in either a 384 wells format (microscopy) or a 96 wells format (7AAD staining) and allowed to settle for 24 hours prior to the addition of ALL xenografts. […] After 3 and 7 days of incubation, cell death was analyzed using microscopy using live cells staining or flowcytometry using 7AAD to discriminate between live or dead cells.
# PDX m1338 = details: m1338 (7 d), ibrutinib B0=0 to B9=100
# Procedure: as §1, §2
# PDX m1717 = details: m1717 (3 d), ibrutinib B0=0 to B9=100
# Procedure: as §1, §2
# PDX m764 = details: m764 (3 d), ibrutinib B0=0 to B9=100
# Procedure: as §1, §2
# PDX m4136 = details: m4136 (3 d), ibrutinib B0=0 to B9=100
# Procedure: as §1, §2
# PDX m3657 = details: m3657 (7 d), ibrutinib B0=0 to B9=100
# Procedure: as §1, §2
# PDX m838 = details: m838 (3 d), ibrutinib B0=0 to B9=100
# Procedure: as §1, §2
molecule,measurement,setting,value
B1,live cells by automated microscopy (table names no quantity),PDX m1600; ASNase A1=0.01,4146
same,live cells by automated microscopy (table names no quantity),PDX m1600; ASNase A2=0.03,4603
same,live cells by automated microscopy (table names no quantity),PDX m1600; ASNase A3=0.1,3714
same,live cells by automated microscopy (table names no quantity),PDX m1600; ASNase A4=0.3,3134
same,live cells by automated microscopy (table names no quantity),PDX m1600; ASNase A5=1,4045
same,live cells by automated microscopy (table names no quantity),PDX m1600; ASNase A6=3,4366
same,live cells by automated microscopy (table names no quantity),PDX m1600; ASNase A7=10,3730
same,live cells by automated microscopy (table names no quantity),PDX m1600; ASNase A8=32,487
same,live cells by automated microscopy (table names no quantity),PDX m1600; ASNase A9 (A=100),4
same,live cells by automated microscopy (table names no quantity),PDX m1338; ASNase A1=0.01,2207
same,live cells by automated microscopy (table names no quantity),PDX m1338; ASNase A2=0.03,3174
same,live cells by automated microscopy (table names no quantity),PDX m1338; ASNase A3=0.1,2916
same,live cells by automated microscopy (table names no quantity),PDX m1338; ASNase A4=0.3,2372
same,live cells by automated microscopy (table names no quantity),PDX m1338; ASNase A5=1,2788
same,live cells by automated microscopy (table names no quantity),PDX m1338; ASNase A6=3,2166
same,live cells by automated microscopy (table names no quantity),PDX m1338; ASNase A7=10,1468
same,live cells by automated microscopy (table names no quantity),PDX m1338; ASNase A8=32,292
same,live cells by automated microscopy (table names no quantity),PDX m1338; ASNase A9 (A=100),1
same,live cells by automated microscopy (table names no quantity),PDX m1717; ASNase A1=0.01,5977
same,live cells by automated microscopy (table names no quantity),PDX m1717; ASNase A2=0.03,6674
same,live cells by automated microscopy (table names no quantity),PDX m1717; ASNase A3=0.1,5155
same,live cells by automated microscopy (table names no quantity),PDX m1717; ASNase A4=0.3,6700
same,live cells by automated microscopy (table names no quantity),PDX m1717; ASNase A5=1,6589
same,live cells by automated microscopy (table names no quantity),PDX m1717; ASNase A6=3,5782
same,live cells by automated microscopy (table names no quantity),PDX m1717; ASNase A7=10,3762
same,live cells by automated microscopy (table names no quantity),PDX m1717; ASNase A8=32,571
same,live cells by automated microscopy (table names no quantity),PDX m1717; ASNase A9 (A=100),24
same,live cells by automated microscopy (table names no quantity),PDX m764; ASNase A1=0.01,546
same,live cells by automated microscopy (table names no quantity),PDX m764; ASNase A2=0.03,1126
same,live cells by automated microscopy (table names no quantity),PDX m764; ASNase A3=0.1,109
same,live cells by automated microscopy (table names no quantity),PDX m764; ASNase A4=0.3,250
same,live cells by automated microscopy (table names no quantity),PDX m764; ASNase A5=1,915
same,live cells by automated microscopy (table names no quantity),PDX m764; ASNase A6=3,887
same,live cells by automated microscopy (table names no quantity),PDX m764; ASNase A7=10,594
same,live cells by automated microscopy (table names no quantity),PDX m764; ASNase A8=32,157
same,live cells by automated microscopy (table names no quantity),PDX m764; ASNase A9 (A=100),2
same,live cells by automated microscopy (table names no quantity),PDX m4136; ASNase A1=0.01,1992
same,live cells by automated microscopy (table names no quantity),PDX m4136; ASNase A2=0.03,1998
same,live cells by automated microscopy (table names no quantity),PDX m4136; ASNase A3=0.1,1980
same,live cells by automated microscopy (table names no quantity),PDX m4136; ASNase A4=0.3,1892
same,live cells by automated microscopy (table names no quantity),PDX m4136; ASNase A5=1,2157
same,live cells by automated microscopy (table names no quantity),PDX m4136; ASNase A6=3,2652
same,live cells by automated microscopy (table names no quantity),PDX m4136; ASNase A7=10,2136
same,live cells by automated microscopy (table names no quantity),PDX m4136; ASNase A8=32,2172
same,live cells by automated microscopy (table names no quantity),PDX m4136; ASNase A9 (A=100),39
same,live cells by automated microscopy (table names no quantity),PDX m3657; ASNase A1=0.01,3562
same,live cells by automated microscopy (table names no quantity),PDX m3657; ASNase A2=0.03,4473
same,live cells by automated microscopy (table names no quantity),PDX m3657; ASNase A3=0.1,4173
same,live cells by automated microscopy (table names no quantity),PDX m3657; ASNase A4=0.3,1159
same,live cells by automated microscopy (table names no quantity),PDX m3657; ASNase A5=1,3935
same,live cells by automated microscopy (table names no quantity),PDX m3657; ASNase A6=3,3317
same,live cells by automated microscopy (table names no quantity),PDX m3657; ASNase A7=10,4220
same,live cells by automated microscopy (table names no quantity),PDX m3657; ASNase A8=32,723
same,live cells by automated microscopy (table names no quantity),PDX m3657; ASNase A9 (A=100),17
same,live cells by automated microscopy (table names no quantity),PDX m838; ASNase A1=0.01,2793
same,live cells by automated microscopy (table names no quantity),PDX m838; ASNase A2=0.03,3003
same,live cells by automated microscopy (table names no quantity),PDX m838; ASNase A3=0.1,3109
same,live cells by automated microscopy (table names no quantity),PDX m838; ASNase A4=0.3,2839
